# Test results reported in publication PMC9267027, “Discovery of a New Microbial Origin Cold-Active Neopullulanase Capable for Effective Conversion of Pullulan to Panose” (International Journal of Molecular Sciences, 2022).
# Several values for one entry are separate records, joined by “and”; a condition that tells them apart may be missing. Equal entries are not always repeated.
# B1: Maltogenic amylase (MAase) ThMA from the Thermus strain (enzyme)
# chain: MRKEAIHHRSTDNFAYAYDSETLHLRLQTKKNDVDHVELLFGDPYEWHDGAWQFQTMPMRKTGSDGLFDYWLAEVKPPYRRLRYGFVLRAGGEKLVYTEKGFYHEAPSDDTAYYFCFPFLHRVDLFQAPDWVKDTVWYQIFPERFANGNPAISPKGARPWGSEDPTPTSFFGGDLQGIIDHLDYLADLGITGIYLTPIFRAPSNHKYDTADYFEIDPHFGDKETLKTLVKRCHEKGIRVMLDAVFNHCGYEFAPFQDVLKNGAASRYKDWFHIREFPLQTEPRPNYDTFAFVPHMPKLNTAHPEVKRYLLDVATYWIREFDIDGWRLDVANEIDHQFWREFRQAVKALKPDVYILGEIWHDAMPWLRGDQFDAVMNYPLADAALRFFAKEDMSASEFADRLMHVLHSYPKQVNEAAFNLLGSHDTPRLLTVCGGDVRKVKLLFLFQLTFTGSPCIYYGDEIGMTGGNDPECRKCMVWDPEKQNKELYEHVKQLIALRKQYRALRRGDVAFLTADDEVNHLVYAKTDGNETVMIIINRSNEAAEIPMPIDARGKWLVNLLTGERFAAEAETLCVSLPPYGFVLYAVESW
# notes: ThMA, maltogenic amylase of a Thermus strain (AAC15072.1); used as the control in analytical ultracentrifugation; the construct is not described
# Biological target: the molecule itself
# Assay: AUC; sedimentation velocity, 50 mM Na2HPO4-NaH2PO4 buffer pH 7.0, 20 °C, 38,000 rpm, absorbance at 280 nm, c(s) model in SEDFIT; oligomeric state
protein,measurement,value
B1,stoichiometry N,2 and 4
